pKd: −log10 of the molar value.
Columns and labels:
[1] = system: IolR-His6 (Salmonella enterica serovar Typhimurium 14028); test: SPR (Interaction Map); details: EMSA: 100 ng DNA in 1x Tris/borate/EDTA, 20 ul, 45 min, 12% native PAA gel run at 4 C, SPR: streptavidin chip, 30 ul/min, 25 C, 0-330 nM IolR, buffer not in …
[2] = system: IolR-His6 (Salmonella enterica serovar Typhimurium 14028); test: SPR (OneToTwo); details: EMSA: 100 ng DNA in 1x Tris/borate/EDTA, 20 ul, 45 min, 12% native PAA gel run at 4 C, SPR: streptavidin chip, 30 ul/min, 25 C, 0-330 nM IolR, buffer not in …
[3] = biological target: T1, IolR-His6 (Salmonella enterica serovar Typhimurium 14028) (UniProt Q8ZK65); test: SPR (OneToTwo); details: EMSA: 100 ng DNA in 1x Tris/borate/EDTA, 20 ul, 45 min, 12% native PAA gel run at 4 C; SPR: streptavidin chip, 30 ul/min, 25 C, 0-330 nM IolR, buffer not in …
T1 sequence: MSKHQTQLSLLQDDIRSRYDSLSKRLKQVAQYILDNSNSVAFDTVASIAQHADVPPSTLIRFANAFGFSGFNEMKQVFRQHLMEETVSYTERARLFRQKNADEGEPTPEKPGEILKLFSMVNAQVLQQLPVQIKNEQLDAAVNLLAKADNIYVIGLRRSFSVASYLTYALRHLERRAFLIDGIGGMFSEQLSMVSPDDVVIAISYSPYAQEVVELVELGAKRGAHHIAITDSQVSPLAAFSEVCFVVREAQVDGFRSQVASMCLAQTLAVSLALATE

PiolT1 SPR fragment
pKd ([1]; high-affinity component, peak weight 40.5%, ka 6.95e5 M-1s-1, kd 5.78e-4 s-1): 9.09
pKd ([1]; low-affinity component, peak weight 57.6%, ka 1.05e5 M-1s-1, kd 3.2e-2 s-1): 6.51

PiolR SPR fragment
pKd ([2]; KD1, ka1 1.3e5 M-1s-1, kd1 5.5e-2 s-1): 6.37
pKd ([2]; KD2, ka2 2.4e5 M-1s-1, kd2 1.4e-3 s-1): 8.22

GGTGTGTCATCAATGGTTGTCTGTTGTGACGAGGAAAGATTTGGAAAAAATTATGATCTATATAGCATTTTTGTTTCATTTGGTGTGGTATAAAAATTCAAATTTCAGGGGGGTTTCGGCACCACA (double strand) [PreiD SPR fragment]
pKd [3]: 6.49

PreiD SPR fragment
pKd ([2]; KD1, ka1 1.5e5 M-1s-1, kd1 4.9e-2 s-1): 6.49
pKd ([2]; KD2, ka2 2.1e5 M-1s-1, kd2 1.4e-3 s-1): 8.18

TTGCTCAGAACCCAGCCCGCCAGCAAATTCTGTACTGAAGGTAACCACAGCGCAATTTGAATGTTGTTAACTGTATGTTCAGTTCATTTGTGCTAATATGGTTATTTACGAAATTTTCGTTCTATTAGAGTATCATGCATGTCTAAACATCAAACTCAACTTTCCTTACTGCAGGATGATATCCGCAG (double strand) [PiolR SPR fragment]
pKd [3]: 6.37
